Measured values: US20140363844

T1: Presegetalin A1[14,32]
T1 chain: GVPVWAFQAKDVENASAPV

T2: Presegetalin A1[14,32]A19V
T2 chain: GVPVWVFQAKDVENASAPV

T3: Presegetalin A1[14,32]V15A
T3 chain: GAPVWAFQAKDVENASAPV

T4: Presegetalin A1[14,32]V17A
T4 chain: GVPAWAFQAKDVENASAPV

T5: Presegetalin A1[14,32]P16A
T5 chain: GVAVWAFQAKDVENASAPV

T6: Presegetalin A1[14,32]W18A
T6 chain: GVPVAAFQAKDVENASAPV

T7: Presegetalin A1[14,32]G14A
T7 chain: AVPVWAFQAKDVENASAPV

T8: Presegetalin A1[14,32] P16p W18a
T8 chain: GVPVAAFQAKDVENASAPV

T9: Presegetalin A1[14,32] P16p W18A
T9 chain: GVPVAAFQAKDVENASAPV

B1: Silene vulgaris PCY1-c150 (recombinant) (protein)
chain: MASSAFSKPLNYPPVRRDETVVNDYFGVKVADPYRWLEDQEGEETIEFVDNQVKLADSVLEECELRDKIKQKITDLVNFPRCGVPFKRADKYFHFYNSGLQAQNVLHMQDDLDGKPEVLYDPNLREGGRSGLHQYAVSEDAKYLAFGINSGFSEWLTIKVMRIEDRSVLPDSLSWVKFSGIHWTHDSKGFFFSPYPPATEGLEVGMKTNSSFNQELRYHFLGTDESEDVLCWRDPENPTHHLKSDLTADGKYLLLYISAGCDATNKVYYMDLTTLPNGLEGLRGGKDLLPFKRLIDEFDATYTAIANDGSVFTFLTNKDAPRNKIVRVDLNNPDIWTEVIPESKKDVLESAHAVNGNQLLVRYLSDVKHILEVRDLESGSLLHRLPVDLGVIDGITARPQDSVVFFKFTSFLTPTIIYQCDLKEDSPQLKIFRESVVPEFDRSEFEVKQVFVSAKDGTKIPMFIVARKGISLDGSHPCELHGYGGFSISIKPFFSASRIVILKHLDAVFCVANIRGGGEYGEEWHQAGWREKKQIVFDDFISSAEYLVSSGYTQPQKLSIEGGSNGGLLVAACINQRPDLFGCAQANCGVMDMLRFHKFTLGYLWTSDYGCSEKEEDFNWLIKYSPIHNVRRPWEHSKNPQLQYPAVMILTADHDDRVVPLHSFKLLATLQHVLCTSLEDSPQKNPIIARIERKASHCGRATMKQIDEAADRYAFMAKALRATWTD
B2: Dianthus superbus PCY1-c250 (recombinant) (protein)
chain: MASCGFTKPLHYPTARRDETVVDDYFGLKVADPYRWLEDRDSEETKKFVEDQVKFTDSVLEECELIGKVKQKIIDYVSFPRWSVPLRRANKYFHFYNSGLQSQNVYRMQDGLDGKPEVICDPNLREDGRTGLSVYSVSEDAKYFAFGIAEGFTEWLTIRVMRTEDRSMLPDCLTEVKFTTVHWTHDNKGFFYCAYPPLEEGQDHMVHASISQEARYHYLGTDQSEDILCWKDPENPTHHFRSYFTDDGKYFVLYILEGCDKKNKVYCLDLTKLPNGPESLRGREGSAPFIKLVDSFDASYTVIANDDSVFTLLTDKDAKRCKLVRVDLNNPSVWTDVIPESKDLLESAHAVNGNQLLLRYLRDVKHVLELRDLESGSLLHSIPIDIGAVDGINARRGDSIVFFRFTSILTPGIIYQCDLKNDPTQLNIFRESLVPGFDRSEFEVKQVFVPGKDGTKIPAFIAARKGISLDGSHPCEMHGYGGYGHNMMPTFSASRLVFLKHLGGVFCLANIRGGGEYGVDWHKAGARENKQTSFDDFISSAEFLVSSGYSAPKKICIEGGSNGGLLIAVCITQRPDLFGCAEPNCGPMDMLRFHKFTLGYLWTDEYGNPDNEEEFNWLIKYSPLHNVRRPWEQPGHEQTQYPATMIITADHDDRVVPMHSYKMIATMQHVLCTSLENSPQKYPIICRIQRKASHYGRSTMVQIAEVADRYGFMAKALNATWTD
B3: Dianthus superbus PCY1-c1141 (recombinant) (protein)
chain: MAVSCGFTKTLHYPPVRRDETVVDDYFGLKIADPYRWLEDLNSEETKKFVDDQVKFTESVLEECELIGKVKQKIIDYVSFPRWSVPLRRANKYFHFYNSGLQSQNVYRMQDGLDGKPEVVYDPNLREGGRTGLTLYSVSEDANYFAFGIAEGFTEWLTIRVMRIEDRSMLPDCITGVKHSGIHWTHDNKGFFYCPYPPLEEGQDLMIHPSMSQEVRYHFIGTDQSEDILCWKDTVNPTHHLKSYFTDDGKYFVLYILEGCNNMNKVYCLDLTELPNGPESLRGREGSAPFIKLVDSFDALYTAIANDGSVFTFLTDKDATRRKLVRVDLNNPSVWTDVLPESKDLLESAHAVNGNQLLIRYLSDVKHILELRDLESGSLLHRIPIDIGAVDGTINARRGDSVVFFKFTSILTPSIIYQCDLKNDPPQLKIFRESVVPGFDRSEFEVKQLFAPSKDGTMIPTFVAARKGISLDGSHPCEMHGYGAYGQCMMPTFSASRLVFLKHLGGVFCLANIRGGGEYGVEWHKAGARENKQNSYDDFIASAEFLVSSGYTAPKKICIEGGSNGGLLIAVCITQRPDLFGCAEPNCGPMDMIRFHHFTQGYVVMSEYGSPDKEEEFNWLIKYSPLHNVRRPWEQPGHEQTQYPATMIITADHDDRVVPFHSYKMIATMQHVLCTSLENSPQKFPIICRIQRNASHYGRATMVQIAEVADRYGFMAKALNATWTD

Tests used:
[1] = biological target: T1, Presegetalin A1[14,32]
[2] = biological target: T2, Presegetalin A1[14,32]A19V
[3] = biological target: T3, Presegetalin A1[14,32]V15A
[4] = biological target: T4, Presegetalin A1[14,32]V17A
[5] = biological target: T5, Presegetalin A1[14,32]P16A
[6] = biological target: T6, Presegetalin A1[14,32]W18A
[7] = biological target: T7, Presegetalin A1[14,32]G14A
[8] = biological target: T8, Presegetalin A1[14,32] P16p W18a
[9] = biological target: T9, Presegetalin A1[14,32] P16p W18A

Protein	production of segetalin A (LC/MS) [1]	activity on alanine scan mutant (LC/MS) [2]	activity on alanine scan mutant (LC/MS) [3]	activity on alanine scan mutant (LC/MS) [4]	activity on alanine scan mutant (LC/MS) [5]	cyclic peptide product (LC/MS) [6]	cyclic peptide product (LC/MS) [7]	cyclic peptide product (LC/MS, MS/MS) [8]	cyclization (LC/MS) [8]	relative activity (LC/MS) [8]	cyclic peptide product (LC/MS, MS/MS) [9]
B1	has the same enzymatic activity as that of S. vaccaria PCY1, (FIG. 7d) albeit weaker than that of S. vaccaria PCY1 for production of segetalin A										
B2	show strong enzymatic activity ... similar to that of S. vaccaria PCY1	D. superbus PCY1-c250 activity was comparable to that of S. vaccaria PCY1	D. superbus PCY1-c250 activity was comparable to that of S. vaccaria PCY1	D. superbus PCY1-c250 activity was comparable to that of S. vaccaria PCY1	D. superbus PCY1-c250 activity was comparable to that of S. vaccaria PCY1	D. superbus PCY1-c250 appeared to produce relatively more cyclic peptide than did S. vaccaria PCY1 from No. 11	there was no detectable cyclic peptide made from No. 7 by D. superbus PCY1-c250				
B3	show strong enzymatic activity ... similar to that of S. vaccaria PCY1							S. vaccaria PCY1 and D. superbus PCY1-c1141 made cyclic peptides from both No. 31 and No. 32	also demonstrated the ability to cyclize alternating D- and L-amino acid polypeptide substrates (FIG. 12a) in a similar manner to S. vaccaria PCY1	D. superbus PCY1-c1141 was relatively more active on No. 32 than was S. vaccaria PCY1	S. vaccaria PCY1 and D. superbus PCY1-c1141 made cyclic peptides from both No. 31 and No. 32
